# B1: Eukaryotic peptide chain release factor GTP-binding subunit (Schizosaccharomyces pombe (strain ATCC 38366 / 972)), O74718 (parent)
# chain: MASNQPNNGEQDEQLAKQTSKLSMSAKAPTFTPKAAPFIPSFQRPGFVPVNNIAGGYPYAQYTGQGQNSNSPHPTKSYQQYYQKPTGNTVDEDKSRVPDFSKKKSFVPPKPAIPKGKVLSLGGNTSAPKSTKPISISLGGTKAPTTTKPAAPAAQSKTETPAPKVTSESTKKETAAPPPQETPTKSADAELAKTPSAPAAALKKAAEAAEPATVTEDATDLQNEVDQELLKDMYGKEHVNIVFIGHVDAGKSTLGGNILFLTGMVDKRTMEKIEREAKEAGKESWYLSWALDSTSEEREKGKTVEVGRAYFETEHRRFSLLDAPGHKGYVTNMINGASQADIGVLVISARRGEFEAGFERGGQTREHAVLARTQGINHLVVVINKMDEPSVQWSEERYKECVDKLSMFLRRVAGYNSKTDVKYMPVSAYTGQNVKDRVDSSVCPWYQGPSLLEYLDSMTHLERKVNAPFIMPIASKYKDLGTILEGKIEAGSIKKNSNVLVMPINQTLEVTAIYDEADEEISSSICGDQVRLRVRGDDSDVQTGYVLTSTKNPVHATTRFIAQIAILELPSILTTGYSCVMHIHTAVEEVSFAKLLHKLDKTNRKSKKPPMFATKGMKIIAELETQTPVCMERFEDYQYMGRFTLRDQGTTVAVGKVVKILD
# partner: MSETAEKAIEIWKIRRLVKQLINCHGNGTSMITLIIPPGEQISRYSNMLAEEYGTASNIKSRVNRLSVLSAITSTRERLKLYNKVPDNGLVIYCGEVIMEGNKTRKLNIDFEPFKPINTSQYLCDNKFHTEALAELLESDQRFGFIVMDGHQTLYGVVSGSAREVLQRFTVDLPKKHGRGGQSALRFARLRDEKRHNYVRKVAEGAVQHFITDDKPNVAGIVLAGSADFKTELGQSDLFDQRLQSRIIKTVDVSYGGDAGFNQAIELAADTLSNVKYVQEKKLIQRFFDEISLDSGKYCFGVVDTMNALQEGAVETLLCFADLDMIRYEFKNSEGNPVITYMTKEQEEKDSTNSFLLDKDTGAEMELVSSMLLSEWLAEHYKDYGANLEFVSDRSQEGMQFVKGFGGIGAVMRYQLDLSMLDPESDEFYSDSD
# B2: Elongation factor 1-alpha (Aeropyrum pernix (strain ATCC 700893 / DSM 11879 / JCM 9820 / NBRC 100138 / K1)), Q9YAV0 (parent)
# chain: MAEKPHMNLVVIGHVDHGKSTLVGHLLYRLGYIEEKKLKELEEQAKSRGKESFKFAWILDKMKEERERGITIDLTFMKFETKKYVFTIIDAPGHRDFVKNMITGASQADAAILVVSARKGEFEAGMSTEGQTREHLLLARTMGIEQIIVAVNKMDAPDVNYDQKRYEFVVSVLKKFMKGLGYQVDKIPFIPVSAWKGDNLIERSPNMPWYNGPTLVEALDQLQPPAKPVDKPLRIPVQNVYSIPGAGTVPVGRVETGVLRVGDKVVFMPPGVVGEVRSIEMHYQQLQQAEPGDNIGFAVRGVSKSDIKRGDVAGHLDKPPTVAEEFEARIFVIWHPSAITVGYTPVIHVHTASVSSRIIEIKAKLDPKTGQVVEQNPQFLKAGDAAIVRFKPVKPLVVEKFSEIPQLGRFAMRDMNRTVGIGIVTDVKPAKVDIKAK
# partner: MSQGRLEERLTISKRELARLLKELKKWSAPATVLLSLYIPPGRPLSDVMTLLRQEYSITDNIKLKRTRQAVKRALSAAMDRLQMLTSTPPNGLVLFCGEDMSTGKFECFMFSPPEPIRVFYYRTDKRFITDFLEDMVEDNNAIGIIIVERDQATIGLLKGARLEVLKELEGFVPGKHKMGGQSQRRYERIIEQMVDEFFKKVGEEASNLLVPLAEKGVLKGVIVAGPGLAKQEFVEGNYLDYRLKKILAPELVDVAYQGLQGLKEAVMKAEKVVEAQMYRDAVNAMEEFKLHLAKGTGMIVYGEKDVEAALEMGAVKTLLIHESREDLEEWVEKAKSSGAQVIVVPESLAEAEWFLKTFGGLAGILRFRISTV
# Variants of: B1
# Conditions: with erf1_schpo sup45, P79063
row,effect of a mutation on the interaction,Variant
1,decreasing interaction,E305A
2,disrupting interaction,Y477A
3,disrupting interaction,Y329A
4,decreasing interaction,T294A
5,decreasing interaction,E297A

# Variants of: B2
# Conditions: with rf1_aerpe prf1, Q9YAF1
row,effect of a mutation on the interaction,Variant
1,decreasing interaction,MAEKPHMNLVVIGHVDHGKSTLVGHLLYRLGYIEEKKLKELEEQAKSRGKESFKFAWILDKMKEERERGITIALTFMKFETKKYVFTIIDAPGHRDFVKNMITGASQADAAILVVSARKGEFEAGMSTEGQTREHLLLARTMGIEQIIVAVNKMDAPDVNYDQKRYEFVVSVLKKFMKGLGYQVDKIPFIPVSAWKGDNLIERSPNMPWYNGPTLVEALDQLQPPAKPVDKPLRIPVQNVYSIPGAGTVPVGRVETGVLRVGDKVVFMPPGVVGEVRSIEMHYQQLQQAEPGDNIGFAVRGVSKSDIKRGDVAGHLDKPPTVAEEFEARIFVIWHPSAITVGYTPVIHVHTASVSSRIIEIKAKLDPKTGQVVEQNPQFLKAGDAAIVRFKPVKPLVVEKFSEIPQLGRFAMRDMNRTVGIGIVTDVKPAKVDIKAK [D73A]
2,disrupting interaction,MAEKPHMNLVVIGHVDHGKSTLVGHLLYRLGYIEEKKLKELEEQAKSRGKESFKFAWILDKMKAERERGITIDLTFMKFETKKYVFTIIDAPGHRDFVKNMITGASQADAAILVVSARKGEFEAGMSTEGQTREHLLLARTMGIEQIIVAVNKMDAPDVNYDQKRYEFVVSVLKKFMKGLGYQVDKIPFIPVSAWKGDNLIERSPNMPWYNGPTLVEALDQLQPPAKPVDKPLRIPVQNVYSIPGAGTVPVGRVETGVLRVGDKVVFMPPGVVGEVRSIEMHYQQLQQAEPGDNIGFAVRGVSKSDIKRGDVAGHLDKPPTVAEEFEARIFVIWHPSAITVGYTPVIHVHTASVSSRIIEIKAKLDPKTGQVVEQNPQFLKAGDAAIVRFKPVKPLVVEKFSEIPQLGRFAMRDMNRTVGIGIVTDVKPAKVDIKAK [E64A]
3,disrupting interaction,MAEKPHMNLVVIGHVDHGKSTLVGHLLYRLGYIEEKKLKELEEQAKSRGKESFKFAWILDKMKEERERGITIDLTFMKFETKKYVFTIIDAPGHRDFVKNMITGASQADAAILVVSARKGEFEAGMSTEGQTREHLLLARTMGIEQIIVAVNKMDAPDVNYDQKRYEFVVSVLKKFMKGLGYQVDKIPFIPVSAWKGDNLIERSPNMPWYNGPTLVEALDQLQPPAKPVDKPLRIPVQNVYSIPGAGTVPVGRVETGVLRVGDKVVFMPPGVVGEVRSIEMHYQQLQQAEPGDNIGFAVRGVSKSDIKRGDVAGHLDKPPTVAEEFEARIFVIWHPSSITVGYTPVIHVHTASVSSRIIEIKAKLDPKTGQVVEQNPQFLKAGDAAIVRFKPVKPLVVEKFSEIPQLGRFAMRDMNRTVGIGIVTDVKPAKVDIKAK [A338S]
4,disrupting interaction,MAEKPHMNLVVIGHVDHGKSTLVGHLLYRLGYIEEKKLKELEEQAKSRGKESFKFAWILDKMKEERERGITIDLTFMKFETKKYVFTIIDAPGHRDFVKNMITGASQADAAILVVSARKGEFEAGMSTEGQTREHLLLARTMGIEQIIVAVNKMDAPDVNYDQKRYEFVVSVLKKFMKGLGYQVDKIPFIPVSAWKGDNLIERSPNMPWYNGPTLVEALDQLQPPAKPVDKPLRIPVQNVYSIPGAGTVPVGRVETGVLRVGDKVVFMPPGVVGEVRSIEMHYQQLQQAEPGDNIGFAVRGVSKSDIKRGDVAGHLDKPPTVAEEFEARIFVIWHPSAITVGYTPVIHVHTASVSSRIIEIKAKLDPKTGQVVEQNPQALKAGDAAIVRFKPVKPLVVEKFSEIPQLGRFAMRDMNRTVGIGIVTDVKPAKVDIKAK [F379A]
5,decreasing interaction,MAEKPHMNLVVIGHVDHGKSTLVGHLLYRLGYIEEKKLKELEEQAKSRGKESFKFAWILDKMKEARERGITIDLTFMKFETKKYVFTIIDAPGHRDFVKNMITGASQADAAILVVSARKGEFEAGMSTEGQTREHLLLARTMGIEQIIVAVNKMDAPDVNYDQKRYEFVVSVLKKFMKGLGYQVDKIPFIPVSAWKGDNLIERSPNMPWYNGPTLVEALDQLQPPAKPVDKPLRIPVQNVYSIPGAGTVPVGRVETGVLRVGDKVVFMPPGVVGEVRSIEMHYQQLQQAEPGDNIGFAVRGVSKSDIKRGDVAGHLDKPPTVAEEFEARIFVIWHPSAITVGYTPVIHVHTASVSSRIIEIKAKLDPKTGQVVEQNPQFLKAGDAAIVRFKPVKPLVVEKFSEIPQLGRFAMRDMNRTVGIGIVTDVKPAKVDIKAK [E65A]
6,disrupting interaction,MAEKPHMNLVVIGHVDHGKSTLVGHLLYRLGYIEEKKLKELEEQAKSRGKESFKFAWILDKMKEERERGITIDLTFMKFETKKYVFTIIDAPGHRDFVKNMITGASQADAAILVVSARKGEFEAGMSTEGQTREHLLLARTMGIEQIIVAVNKMDAPDVNYDQKRYEFVVSVLKKFMKGLGYQVDKIPFIPVSAWKGDNLIERSPNMPWYNGPTLVEALDQLQPPAKPVDKPLRIPVQNVYSIPGAGTVPVGRVETGVLRVGDKVVFMPPGVVGEVRSIEMHYQQLQQAEPGDNIGFAVRGVSKSDIKRGDVAGHLDKPPTVAEEFEARIFVIWHPAAITVGYTPVIHVHTASVSSRIIEIKAKLDPKTGQVVEQNPQFLKAGDAAIVRFKPVKPLVVEKFSEIPQLGRFAMRDMNRTVGIGIVTDVKPAKVDIKAK [S337A]

# — IntAct's records for PubMed 20974926
